Source: patent US8173131B2, “Compositions and methods for modulating RSV infection and immunity” (PerkinElmer Health Sciences, Inc., priority 2000, dated 2012)
Read-outs that look alike come from different tables or passages of the source.

T1: CX3CR1 (293-CX3CR1 cells) (Homo sapiens, UniProt P49238)
T1 construct: expressed in transfected cells
T1 sequence (P49238 1-355): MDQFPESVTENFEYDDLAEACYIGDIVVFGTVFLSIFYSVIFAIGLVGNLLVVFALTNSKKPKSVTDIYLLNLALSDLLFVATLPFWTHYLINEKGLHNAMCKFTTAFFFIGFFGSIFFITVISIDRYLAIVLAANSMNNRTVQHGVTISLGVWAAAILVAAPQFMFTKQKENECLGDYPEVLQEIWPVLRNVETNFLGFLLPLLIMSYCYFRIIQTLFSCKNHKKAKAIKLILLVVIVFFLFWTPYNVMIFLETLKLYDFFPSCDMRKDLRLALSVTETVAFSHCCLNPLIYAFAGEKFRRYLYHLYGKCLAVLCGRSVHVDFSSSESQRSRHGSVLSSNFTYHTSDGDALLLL

B1: G glycoprotein: purified G glycoprotein isolated from RSV/A2-infected Vero cells (protein)
chain: MSKNKDQRTAKTLERTWDTLNHLLFISSCLYKLNLKSVAQITLSILAMIISTSLIIAAIIFIASANHKVTPTTAIIQDATSQIKNTTPTYLTQNPQLGISPSNPSEITSQITTILASTTPGVKSTLQSTTVKTKNTTTTQTQPSKPTTKQRQNKPPSKPNNDFHFEVFNFVPCSICSNNPTCWAICKRIPNKKPGKKTTTKPTKKPTLKTTKKDPKPQTTKSKEVPTTKPTEEPTINTTKTNIITTLLTSNTTGNPELTSQMETFHSTSSEGNPSPSQVSTTSEYPSQPSSPPNTPRQ

Experiments:
[1] = target: T1, CX3CR1 (293-CX3CR1 cells); test: G glycoprotein and Fkn binding to 293-CX3CR1 cells by flow cytometry; conditions: for percent positive staining of CX3CR1-293 cells: representative experiment, FIG. 1
Procedure: (§1) Purified G glycoprotein was examined for binding to 293-CX3CR1 cells^33. A pcDNA 3.1 plasmid containing the CX3CR1 gene and a neomycin resistance gene was used to stably transfect human embryonic kidney (HEK) cells. Neomycin resistance was used for selection and maintenance of plasmid transfection of human embryonic kidney cells.
All binding studies were done on ice and either G glycoprotein or human Fkn (R&D Diagnostics, Minneapolis, […]) containing 1% bovine serum albumin (Sigma) and incubated with the 293-CX3CR1 cells or 293 control cells for 30 min at 4° C. […] For inhibition studies, 100 pM-1 μM human Fkn or G glycoprotein was preincubated with the cells for 30 min at 4° C. Without washing, 100 pM of either Fkn or G glycoprotein was added and incubated for 30 min at 4° C. The cells were washed, blocked with FcγRIII blocking antibody (HB197) for 30 min on ice, washed and stained as appropriate with either an anti-G glycoprotein monoclonal antibody cocktail (132-5B, 132-5G, 130-2G, 232-IF) or a biotinylated anti-G glycoprotein monoclonal antibody cocktail (130-2G, 131-2G) or anti-Fkn monoclonal antibody (51637.11; R&D Diagnostics). Concentrations of 1 μg of anti-G glycoprotein monoclonal antibody (131-2G)^34, rabbit anti-CX3CR1 sera^33, and anti-CX3CR1 monoclonal antibody containing 10 μg/ml heparin were used in all experiments. […] Staining was detected with absorbed FITC-goat anti-mouse (H & L chain) monoclonal antibody (PharMingen, San Diego, Calif.) or streptavidin-PE (PharMingen) using flow cytometry (FACScan, Becton-Dickinson, Mountain View, Calif.). A 76 amino acid ^125I-Fkn polypeptide comprising the […] (NEN, Boston, Mass.) was used in radioligand studies^33. As a control, the void volume following purified G glycoprotein passaged over an anti-G glycoprotein antibody (130-2G) affinity column was examined by flow cytometry for binding to either 293 or 293-CX3CR1 cells.
(§2) The receptor for Fkn, CX3CR1, was previously identified and characterized using anti-CX3CR1 rabbit antiserum and CX3CR1-transfected human embryonic kidney cells (293-CX3CR1 cells)^33.
The percent Fkn-maximum binding was calculated using the equation: [% G (or Fkn) 293-CX3CR1]-[% G (or Fkn) 293]/[% Fkn (10 nM) 293-CX3CR1]-[% Fkn (10 nM) 293], where G=G glycoprotein, Fkn=fractalkine, 293-CX3CR1=CX3CR1-transfected 293, 293=untransfected 293. The concentration of G glycoprotein was estimated using a molecular weight of 90 kD.

293 cells = test: G glycoprotein and Fkn binding to untransfected 293 control cells by flow cytometry; design: species or system human; conditions: for percent positive staining of 293 cells: 10 nM ligand, representative experiment, FIG. 1
Procedure: as §1
All binding studies were done on ice and either G glycoprotein or human Fkn (R&D Diagnostics, Minneapolis, Minn.) were diluted between 1 nM-100 nM in PBS (GIBCO) containing 1% bovine serum albumin (Sigma) and incubated with the 293-CX3CR1 cells or 293 control cells for 30 min at 4° C. […] For inhibition studies, 100 pM-1 μM human Fkn or G glycoprotein was preincubated with the cells for 30 min at 4° C. Without washing, 100 pM of either Fkn or G glycoprotein was added and incubated for 30 min at 4° C. The cells were washed, blocked with FcγRIII blocking antibody (HB197) for 30 min on ice, washed and stained as appropriate with either an anti-G glycoprotein monoclonal antibody cocktail (132-5B, 132-5G, 130-2G, 232-IF) or a biotinylated anti-G glycoprotein monoclonal antibody cocktail (130-2G, 131-2G) or anti-Fkn monoclonal antibody (51637.11; R&D Diagnostics). Concentrations of 1 μg of anti-G glycoprotein monoclonal antibody (131-2G)^34, rabbit anti-CX3CR1 sera^33, and anti-CX3CR1 monoclonal antibody containing 10 μg/ml heparin were used in all experiments. […] Staining was detected with absorbed FITC-goat anti-mouse (H & L chain) monoclonal antibody (PharMingen, San Diego, Calif.) or streptavidin-PE (PharMingen) using flow cytometry (FACScan, Becton-Dickinson, Mountain View, Calif.). A 76 amino acid ^125I-Fkn polypeptide comprising the […] (NEN, Boston, Mass.) was used in radioligand studies^33. As a control, the void volume following purified G glycoprotein passaged over an anti-G glycoprotein antibody (130-2G) affinity column was examined by flow cytometry for binding to either 293 or 293-CX3CR1 cells.
as §2

[2] = target: T2, Fkn binding to 293-CX3CR1 cells (Homo sapiens, UniProt P49238)
T2 construct: host or cells: HEK 293 cells stably transfected with CX3CR1

[3] = 10 nM ligand, 293-CX3CR1 minus 293 binding relative to 10 nM Fkn
[4] = wheat germ lectin column fraction (G, F glycoprotein) or purified recombinant polyhistidine-tagged G glycoprotein

Molecule	Fkn-Maximum Binding (%) ([1]; 10 pM ligand)	Fkn-Maximum Binding (%) ([1]; 100 pM ligand)	Fkn-Maximum Binding (%) ([1]; 1 nM ligand)	Fkn-Maximum Binding (%) [1, 3]	percent positive staining of CX3CR1-293 cells ([1]; 10 nM ligand)	concentration saturating 293-CX3CR1 binding ([1]; 30 min at 4° C.)	percent positive staining of 293 cells (293 cells)	Range of Inhibition (%) of Fkn binding ([2]; heparin 5 μg/ml + peptide 1 μM)	binding to 293-CX3CR1 cells [1, 4]	Range of Inhibition (%) of Fkn binding ([2]; heparin 5 μg/ml + G glycoprotein 10 nM)	binding to 293 cells (293 cells; [4])
Fkn: CX3C chemokine fractalkine (R&D), ligand of CX3CR1 [reference compound]	46%	98%	99%	98%	88%	1 to 10 nM	8%	–	–	–	–
TCWAICKRIPNK [RT33]	–	–	–	–	–	–	–	70-80%	–	–	–
B1	40%	80%	87%	88%	84%	–	16%	–	70%	80-85%	18%
